Measured values taken from PMC2693666 (PLoS ONE, 2009).

B1: recMoPrP(89–230) (domain or fragment)
chain: not shown
B2: recMoPrP(23–230) (natural protein)
chain: not shown
B3: recMoDpl(26–155) (domain or fragment, mouse, UniProt Q9QUG3 26-155, looked up)
chain: ARGIKHRFKWNRKVLPSSGGQITEARVAENRPGAFIKQGRKLDIDFGAEGNRYYAANYWQFPDGIYYEGCSEANVTKEMLVTSCVNATQAANQAEFSREKQDSKLHQRVLWRLIKEICSAKHCDFWLERG
notes: also called recDpl

Key:
Assay in all cases: SPR; Biacore 2000, 20°C; […] (10 mM HEPES, 150 mM NaCl), pH 7.4, 20 µL/min; 1:1 (Langmuir) model
Details in all cases: both partners purified
recMoDpl(26–155) = molecular target: B3
recMoPrP(23–230) = molecular target: B2
recMoPrP(89–230) = molecular target: B1

Binder	stoichiometry N (recMoDpl(26–155))	Kd (recMoPrP(23–230)) [nM]	koff (recMoPrP(23–230)) [s⁻¹]	kon (recMoPrP(23–230)) [M⁻¹ s⁻¹]	Kd (recMoPrP(89–230)) [nM]	koff (recMoPrP(89–230)) [s⁻¹]	kon (recMoPrP(89–230)) [M⁻¹ s⁻¹]
B1	1						
B2	1						
B3		11	0.0013	120000	100	0.00087	8400
